Measured values published in paper PMC6497270, “Thermodynamic investigation of DNA-binding affinity of wild-type and mutant transcription factor RUNX1”.

Legend:
RUNX1 K83R = RUNX1 K83R (Homo sapiens, UniProt Q01196 1-181, K83R); experiment: ITC; without CBFβ; ITC: 20 uM RUNX1 in cell, 100 uM DNA in syringe, 10 mM HEPES-NaOH pH 7.5, 180 mM NaCl, 0.005% Tween 20; temperature stated as 277 K (Methods) but 25 °C (Results); conditions: protein: recombinant; tags: N-terminal His6; (21 bp)
RUNX1 K83R/H179K = RUNX1 K83R/H179K (Homo sapiens, UniProt Q01196 1-181, K83R;H179K); experiment: as above; conditions: protein: recombinant; tags: N-terminal His6; (21 bp)
[1] = biological target: RUNX1 WT (RUNT-containing) (Homo sapiens, UniProt Q01196 1-181); experiment: as above; conditions: protein: recombinant; tags: N-terminal His6; (21 bp)
RUNX1 H179K = RUNX1 H179K (Homo sapiens, UniProt Q01196 1-181, H179K); experiment: as above; conditions: protein: recombinant; tags: N-terminal His6; (21 bp)
RUNX1 R139Q = RUNX1 R139Q (Homo sapiens, UniProt Q01196 1-181, R139Q); experiment: as above; conditions: protein: recombinant; tags: N-terminal His6; (21 bp)
RUNX1 S114L = RUNX1 S114L (Homo sapiens, UniProt Q01196 1-181, S114L); experiment: as above; conditions: protein: recombinant; tags: N-terminal His6; (21 bp)
RUNX1 R139Q;CBFβ = RUNX1 R139Q;CBFβ (Homo sapiens;Homo sapiens?, UniProt Q01196;Q13951 1-181;1-141, R139Q|); experiment: ITC; RUNX1:CBFβ 1:2; ITC: 20 uM RUNX1 in cell, 100 uM DNA in syringe, 10 mM HEPES-NaOH pH 7.5, 180 mM NaCl, 0.005% Tween 20; temperature stated as 277 K (Methods) but 25 °C (Results); conditions: protein: recombinant;recombinant; tags: N-terminal His6;; copies: 1;1; (21 bp)
[2] = biological target: RUNX1 WT (RUNT-containing);CBFβ (Homo sapiens;Homo sapiens?, UniProt Q01196;Q13951 1-181;1-141, |); experiment: as above; conditions: protein: recombinant;recombinant; tags: N-terminal His6;; copies: 1;1; (21 bp)
RUNX1 K83R;CBFβ = RUNX1 K83R;CBFβ (Homo sapiens;Homo sapiens?, UniProt Q01196;Q13951 1-181;1-141, K83R|); experiment: as above; conditions: protein: recombinant;recombinant; tags: N-terminal His6;; copies: 1;1; (21 bp)
RUNX1 H179K;CBFβ = RUNX1 H179K;CBFβ (Homo sapiens;Homo sapiens?, UniProt Q01196;Q13951 1-181;1-141, H179K|); experiment: as above; conditions: protein: recombinant;recombinant; tags: N-terminal His6;; copies: 1;1; (21 bp)
RUNX1 S114L;CBFβ = RUNX1 S114L;CBFβ (Homo sapiens;Homo sapiens?, UniProt Q01196;Q13951 1-181;1-141, S114L|); experiment: as above; conditions: protein: recombinant;recombinant; tags: N-terminal His6;; copies: 1;1; (21 bp)
RUNX1 K83R/H179K;CBFβ = RUNX1 K83R/H179K;CBFβ (Homo sapiens;Homo sapiens?, UniProt Q01196;Q13951 1-181;1-141, K83R;H179K|); experiment: as above; conditions: protein: recombinant;recombinant; tags: N-terminal His6;; copies: 1;1; (21 bp)
RUNX1 K83E = RUNX1 K83E (Homo sapiens, UniProt Q01196 1-181, K83E); experiment: ITC; without CBFβ; no significant enthalpy change; ITC: 20 uM RUNX1 in cell, 100 uM DNA in syringe, 10 mM HEPES-NaOH pH 7.5, 180 mM NaCl, 0.005% Tween 20; temperature stated as 277 K (Methods) but 25 °C (Results); conditions: protein: recombinant; tags: N-terminal His6; (21 bp)
RUNX1 K83E;CBFβ = RUNX1 K83E;CBFβ (Homo sapiens;Homo sapiens?, UniProt Q01196;Q13951 1-181;1-141, K83E|); experiment: ITC; RUNX1:CBFβ 1:2; no significant enthalpy change; ITC: 20 uM RUNX1 in cell, 100 uM DNA in syringe, 10 mM HEPES-NaOH pH 7.5, 180 mM NaCl, 0.005% Tween 20; temperature stated as 277 K (Methods) but 25 °C (Results); conditions: protein: recombinant;recombinant; tags: N-terminal His6;; copies: 1;1; (21 bp)
Sequence of RUNX1 K83E;CBFβ (Q01196 1-181 K83E, chain 1 of 2): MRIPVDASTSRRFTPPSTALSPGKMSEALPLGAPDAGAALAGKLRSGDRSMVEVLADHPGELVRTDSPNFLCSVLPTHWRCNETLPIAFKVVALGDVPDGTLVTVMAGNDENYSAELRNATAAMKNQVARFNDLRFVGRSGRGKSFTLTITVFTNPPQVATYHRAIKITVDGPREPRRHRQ
Sequence of RUNX1 K83E;CBFβ (Q13951 1-141, chain 2 of 2): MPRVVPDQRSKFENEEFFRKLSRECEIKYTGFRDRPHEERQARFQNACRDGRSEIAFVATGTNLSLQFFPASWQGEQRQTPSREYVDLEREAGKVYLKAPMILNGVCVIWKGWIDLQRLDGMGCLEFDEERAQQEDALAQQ

Sequence of RUNX1 S114L;CBFβ (Q01196 1-181 S114L, chain 1 of 2): as the sequence (Q01196 1-181 K83E, chain 1 of 2) above, with E83K, S114L counted along it
Sequence of RUNX1 S114L;CBFβ (Q13951 1-141, chain 2 of 2): as the sequence (Q13951 1-141, chain 2 of 2) above
Sequence of RUNX1 S114L (Q01196 1-181 S114L): as the sequence (Q01196 1-181 K83E, chain 1 of 2) above, with E83K, S114L counted along it
Sequence of RUNX1 K83R;CBFβ (Q01196 1-181 K83R, chain 1 of 2): as the sequence (Q01196 1-181 K83E, chain 1 of 2) above, with E83R counted along it
Sequence of RUNX1 K83R;CBFβ (Q13951 1-141, chain 2 of 2): as the sequence (Q13951 1-141, chain 2 of 2) above
Sequence of RUNX1 K83R (Q01196 1-181 K83R): as the sequence (Q01196 1-181 K83E, chain 1 of 2) above, with E83R counted along it
Sequence of RUNX1 R139Q (Q01196 1-181 R139Q): as the sequence (Q01196 1-181 K83E, chain 1 of 2) above, with E83K, R139Q counted along it
Sequence of RUNX1 R139Q;CBFβ (Q01196 1-181 R139Q, chain 1 of 2): as the sequence (Q01196 1-181 K83E, chain 1 of 2) above, with E83K, R139Q counted along it
Sequence of RUNX1 R139Q;CBFβ (Q13951 1-141, chain 2 of 2): as the sequence (Q13951 1-141, chain 2 of 2) above
Sequence of RUNX1 WT (RUNT-containing);CBFβ (Q01196 1-181, chain 1 of 2): as the sequence (Q01196 1-181 K83E, chain 1 of 2) above, with E83K counted along it
Sequence of RUNX1 WT (RUNT-containing);CBFβ (Q13951 1-141, chain 2 of 2): as the sequence (Q13951 1-141, chain 2 of 2) above
Sequence of RUNX1 WT (RUNT-containing) (Q01196 1-181): as the sequence (Q01196 1-181 K83E, chain 1 of 2) above, with E83K counted along it
Sequence of RUNX1 K83R/H179K;CBFβ (Q01196 1-181 K83R/H179K, chain 1 of 2): as the sequence (Q01196 1-181 K83E, chain 1 of 2) above, with E83R, H179K counted along it
Sequence of RUNX1 K83R/H179K;CBFβ (Q13951 1-141, chain 2 of 2): as the sequence (Q13951 1-141, chain 2 of 2) above
Sequence of RUNX1 K83R/H179K (Q01196 1-181 K83R/H179K): as the sequence (Q01196 1-181 K83E, chain 1 of 2) above, with E83R, H179K counted along it
Sequence of RUNX1 H179K;CBFβ (Q01196 1-181 H179K, chain 1 of 2): as the sequence (Q01196 1-181 K83E, chain 1 of 2) above, with E83K, H179K counted along it
Sequence of RUNX1 H179K;CBFβ (Q13951 1-141, chain 2 of 2): as the sequence (Q13951 1-141, chain 2 of 2) above
Sequence of RUNX1 H179K (Q01196 1-181 H179K): as the sequence (Q01196 1-181 K83E, chain 1 of 2) above, with E83K, H179K counted along it
Sequence of RUNX1 K83E (Q01196 1-181 K83E): as the sequence (Q01196 1-181 K83E, chain 1 of 2) above

B1: CSF-1R promoter 21 bp DNA (dsDNA)
DNA 1: CAAACTCTGTGGTTGCCTTGC
DNA 2: GCAAGGCAACCACAGAGTTTG
Kd (RUNX1 K83R): 480 ± 150 nM
Kd (RUNX1 K83R/H179K): 290 ± 50 nM
Kd [1]: 490 ± 10 nM
Kd (RUNX1 H179K): 350 ± 120 nM
Kd (RUNX1 R139Q): 1480 ± 510 nM
Kd (RUNX1 S114L): 700 ± 80 nM
Kd (RUNX1 R139Q;CBFβ): 3.35 ± 0.8 µM
Kd [2]: 230 ± 50 nM
Kd (RUNX1 K83R;CBFβ): 160 ± 30 nM
Kd (RUNX1 H179K;CBFβ): 100 ± 40 nM
Kd (RUNX1 S114L;CBFβ): 390 ± 80 nM
Kd (RUNX1 K83R/H179K;CBFβ): 73 ± 5 nM
binding result (RUNX1 K83E): no binding
binding result (RUNX1 K83E;CBFβ): no binding
